This data set concerns T1, SigW (ECF sigma factor, GST fusion) (Pseudomonas donghuensis HYS), ORF:b11b1795.
T1 sequence: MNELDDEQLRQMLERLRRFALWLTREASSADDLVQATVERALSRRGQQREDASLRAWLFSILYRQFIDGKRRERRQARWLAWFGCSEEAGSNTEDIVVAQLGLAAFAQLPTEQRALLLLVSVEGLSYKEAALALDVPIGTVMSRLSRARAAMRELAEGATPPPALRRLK
Put plainly: EMSA. As to conditions: EMSA: 0.3 uM DNA in 20 uL, 10 mM Tris-HCl pH 7.5, 150 mM NaCl, 2 mM DTT, 2 mM EDTA, 10% glycerol, 30 C 40 min; 6.8% native PAGE in 0.5x TBE on ice, EB stain. For orientation: Mobility shift assays separate free from complexed probe on a gel.

For “CCCTACCGTATTTGAACGGCTGGCCAGCCCTCTGTGTCCTTGCACGCCCTTGAGTTAGGGCCTGCATGCCCCATTTGCGGGCAGAGAACACTGCCGGTTCAAAGACATTCAGGGAAAAACCTCCAGGATCGGAGCCCCGTGGTCTGGCTGGCAGTCTTTCTCACAAATGCGATCAGGTAAATTCTGGAGTCATTCGTGAAACAAGCTCAACTTCCGCGCAAGATACCCACACAAGCCCGCTCGAGG (double strand) [orf12 promoter]”, the binding entry is listed as “binds”.

“CGAACTCATGGCCTGCCCCCGGGAACGGGCGCAGGGGCACGGTAAAACAGGTACAGGCGCATGGCTTCAGAACTCCGGGTAATTGAGGTACCCGGCAAGTCTATGGAGGCCGATTACTGACGAAAACTGACATATTCGCAGCTTTATGCTGCATGAGACGCAACTATACGATCAGGTATATATAAGCGCTCAAAAGCATC (double strand) [orf2-orf5 promoter]”: the binding entry is “binds more weakly”.

For “GCCCGCGTATTTCCTGAGCTCAACCTGAGCAATCACGCAGCGCCGCACTCGGTTATTTGAATGCGAGTAGCCATAGCACGGCAACTTGCCTAGGATAAGAAACAAATTGAAACGTTGTTAAAAGTGACAACTACCCGCTCAACGATGTTTCAACTTTCTTGCAATCTTCAGCCCCACAAATCAATAAAAGGACGTTCACGATGAGCAACAAGGGTTTTGACACCG (double strand) [orf9-orf6 promoter]”, the binding entry is reported as “binds”.

In the case of “TCAATGGCGATCAGTACCGAGCTGTACATGGTGACGGGACCCATTCTGAATACAAAGAGCAGGCATTCTTGAAAAAGCGTGCGGCCGGGTAAATGGTGCGCGGTGCAATGACTAGTTGCGCAGAATGCAAGGGCTGGAAAACCTGCAGAAACTGGTAAGATTGCAGCGGATTCACTGAAATACATGAATGGATGCTTACCATGCACTTTCCGGATA (double strand) [orf1 promoter]”, the binding result is listed as “binds”.

These data come from article PMC9861184.
